Laboratory results from patent US20240317847A1 (Bayer, published 2024).
“And” between values parts separate entries of the source, which are not always exact repeats. Identical values can stand only once.

T1: human IL-11 (human, UniProt P20809 22-199)
T1 construct: bought from Invigate; also called hIL-11; hIL11
T1 sequence: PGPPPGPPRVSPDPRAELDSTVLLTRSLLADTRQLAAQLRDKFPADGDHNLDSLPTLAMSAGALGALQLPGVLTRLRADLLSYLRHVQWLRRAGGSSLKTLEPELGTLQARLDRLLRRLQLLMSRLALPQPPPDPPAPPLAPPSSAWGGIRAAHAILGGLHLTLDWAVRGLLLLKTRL

T2: murine IL-11 (mouse, UniProt P47873 22-199)
T2 construct: bought from Invigate; also called mIL-11; mIL11
T2 sequence: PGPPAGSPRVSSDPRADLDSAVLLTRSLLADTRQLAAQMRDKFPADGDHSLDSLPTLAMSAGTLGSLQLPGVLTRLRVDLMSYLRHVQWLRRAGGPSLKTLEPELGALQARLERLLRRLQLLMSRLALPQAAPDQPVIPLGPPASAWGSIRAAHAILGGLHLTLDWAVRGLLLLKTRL

T3: murine IL-11 (mouse, UniProt P47873 22-199)
T3 sequence: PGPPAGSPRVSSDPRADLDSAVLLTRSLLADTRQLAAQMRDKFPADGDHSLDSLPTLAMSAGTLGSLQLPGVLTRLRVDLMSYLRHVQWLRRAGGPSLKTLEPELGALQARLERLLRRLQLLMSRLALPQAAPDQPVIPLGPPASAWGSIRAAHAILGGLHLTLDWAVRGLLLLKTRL

T4: human IL-11 (human, UniProt P20809 22-199)
T4 sequence: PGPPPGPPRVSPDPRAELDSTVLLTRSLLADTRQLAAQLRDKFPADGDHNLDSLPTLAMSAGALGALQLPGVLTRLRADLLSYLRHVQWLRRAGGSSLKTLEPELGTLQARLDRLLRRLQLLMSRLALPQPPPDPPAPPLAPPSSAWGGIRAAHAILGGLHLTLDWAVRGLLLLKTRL

T5: rat IL-11 (rat, UniProt Q99MF5 22-199)
T5 construct: Invigate, e.g. lot #C301019-19; also called rIL11
T5 sequence: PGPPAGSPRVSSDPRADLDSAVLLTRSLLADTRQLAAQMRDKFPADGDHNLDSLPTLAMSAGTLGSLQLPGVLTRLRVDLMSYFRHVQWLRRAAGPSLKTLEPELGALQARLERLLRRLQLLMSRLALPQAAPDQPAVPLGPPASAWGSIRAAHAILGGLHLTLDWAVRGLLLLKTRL

T6: cynomolgus IL-11 (cynomolgus, UniProt P20808 22-199)
T6 construct: Invigate, lot #C290621-19; also called cIL11; cynoL-11
T6 sequence: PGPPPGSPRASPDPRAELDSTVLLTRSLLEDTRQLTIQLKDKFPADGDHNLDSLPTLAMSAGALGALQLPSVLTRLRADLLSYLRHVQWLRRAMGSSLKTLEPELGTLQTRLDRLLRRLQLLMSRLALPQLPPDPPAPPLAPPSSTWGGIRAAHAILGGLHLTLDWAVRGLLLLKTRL


Legend:
human IL-11 [1] = target: T1, human IL-11; test: SPR, IgG captured via anti-human Fc, IL-11 as analyte
Protocol: (§1) Antibody binding affinity to hIL-11 (Invigate, Germany, e.g., lot #C121021-19) and mIL-11 (Invigate, Germany, e.g., lot #C210819-09) was detected using Biacore 8K. Each antibody was captured on an anti-human IgG Fc antibody immobilized CM5 sensor chip (GE). hIL-11 and mIL-11 at different concentrations (0, 5, 15.82 and 50 nM) in 1×HBS-EP+ (pH 7.4) (GE healthcare) were injected over the sensor chip at a flow rate of 30 μL/min for an association phase of 120 s, followed by 200 s dissociation phase. The chip was then regenerated by 10 mM Glycine, pH 1.5 after each binding cycle.
(§2) The sensorgrams of blank surface and buffer channel were subtracted from the test sensorgrams. The experimental data was fitted by 1:1 model using Langmiur analysis. Molecular weight of 19.3 kDa was used to calculate the molar concentration of human and mouse IL-11.
(§3) 16 AB were produced as described in Example 21 and binding of purified AB to human and mouse IL-11 was analyzed using SPR as described in Example 21.

murine IL-11 [2] = target: T2, murine IL-11; test: as above
Protocol: as §1, §2, §3

human IL-11 [3] = target: T1, human IL-11; test: cell-based or functional assay
murine IL-11 [4] = target: T2, murine IL-11; test: cell-based or functional assay
human IL-11 [5] = target: T1, human IL-11; test: cell-based or functional assay; remark: listed apart in the source
murine IL-11 [6] = target: T2, murine IL-11; test: cell-based or functional assay; remark: listed apart in the source
murine IL-11 [7] = target: T3, murine IL-11; test: cell-based or functional assay; remark: listed apart in the source
human IL-11 [8] = target: T4, human IL-11; test: cell-based or functional assay; remark: listed apart in the source
rat IL-11 = target: T5, rat IL-11; test: SPR, antibody captured, IL-11 as analyte
murine IL-11 [9] = target: T3, murine IL-11; test: SPR, antibody captured, IL-11 as analyte
cynomolgus IL-11 = target: T6, cynomolgus IL-11; test: SPR, antibody captured, IL-11 as analyte
human IL-11 [10] = target: T4, human IL-11; test: SPR, antibody captured, IL-11 as analyte

Kd (human IL-11 [1]) [nM]	Kd (murine IL-11 [2]) [nM]	IC50, RGA (human IL-11 [3]) [nM]	IC50, RGA (murine IL-11 [4]) [nM]	Binder	other results
5.3	9.3	8.9	9.8	TPP-31312 (antibody, IgG4, V domains shown, also called WT antibody; chimeric antibody) VH: EVQLLESGGGLVQPGGSLRLSCAASGFTFSHYDMNWLRQAPGKGLEWVGVISYDGSNKFYADFVKGRFTISRDNSKNTLYLQMNSLRAEDTAVYYCARTPGSHFDYWGQGTLVTVSS VL: QSVLTQPPSASGTPGQRVTISCSGSSSNIGNNAVNWYQQLPGTAPKLLIYYDDLLPSGVPDRFSGSKSGTSASLAISGLRSEDEADYYCSAWDDSLNGVVFGGGTKLTVL	IC50, RGA 1 (human IL-11 [5]): 163 nM and 171 nM; IC50, RGA 2 (human IL-11 [5]): 80 nM; IC50, RGA 1 (murine IL-11 [6]): 31 nM and 75 nM; IC50, RGA 2 (murine IL-11 [6]): 20 nM
0.59	0.35	1.2	0.6	TPP-31325 (antibody, human IgG4 S228P, lambda, V domains shown, hIgG4-SPLE, Lambda; also called final germline; FB with a back-mutation VL-A90S) VH: QVQLVESGGGVVQPGRSLRLSCAASGFTFSHYDMHWVRQAPGKGLEWVAVISYEGSNKFYADSVKGRFTISRDNSKNTLYLQMNSLRAEDTAVYYCARTPGSHFDYWGQGTLVTVSS VL: QSVLTQPPSASGTPGQRVTISCSGSSSNIGSNYVNWYQQLPGTAPKLLIYYDDLRPSGVPDRFSGSKSGTSASLAISGLRSEDEADYYCSAWDDSLSGVVFGGGTKLTVLG	
0.81	0.69	1.7	1.4	TPP-31322 (antibody, IgG4, V domains shown, hIgG4 SPLE, lambda; FB - 1, back mutation VL-S31N) VH: QVQLVESGGGVVQPGRSLRLSCAASGFTFSHYDMHWVRQAPGKGLEWVAVISYEGSNKFYADSVKGRFTISRDNSKNTLYLQMNSLRAEDTAVYYCARTPGSHFDYWGQGTLVTVSS VL: QSVLTQPPSASGTPGQRVTISCSGSSSNIGNNYVNWYQQLPGTAPKLLIYYDDLRPSGVPDRFSGSKSGTSASLAISGLRSEDEADYYCAAWDDSLSGVVFGGGTKLTVL	
1	0.85	3.1	2.1	TPP-31327 (antibody, IgG4, V domains shown, hIgG4 SPLE, lambda; FB + 1, plus VL-D53N) VH: QVQLVESGGGVVQPGRSLRLSCAASGFTFSHYDMHWVRQAPGKGLEWVAVISYEGSNKFYADSVKGRFTISRDNSKNTLYLQMNSLRAEDTAVYYCARTPGSHFDYWGQGTLVTVSS VL: not shown	
1.8	1.8	7.9	2.1	TPP-31328 (antibody, IgG4, V domains shown, hIgG4 SPLE, lambda; FB + 2, plus VH-F59Y & VL-D53N) VH: QVQLVESGGGVVQPGRSLRLSCAASGFTFSHYDMHWVRQAPGKGLEWVAVISYEGSNKYYADSVKGRFTISRDNSKNTLYLQMNSLRAEDTAVYYCARTPGSHFDYWGQGTLVTVSS VL: not shown	
0.85	0.67	2.8	1	TPP-31321 (antibody, IgG4, V domains shown, hIgG4 SPLE, lambda; FB - 1, back mutation VH-S63F) VH: QVQLVESGGGVVQPGRSLRLSCAASGFTFSHYDMHWVRQAPGKGLEWVAVISYEGSNKFYADFVKGRFTISRDNSKNTLYLQMNSLRAEDTAVYYCARTPGSHFDYWGQGTLVTVSS VL: not shown	
0.95	0.56	2.8	1.1	TPP-31320 (antibody, IgG4, V domains shown, hIgG4 SPLE, lambda; FB - 1, back mutation VH-A49G) VH: QVQLVESGGGVVQPGRSLRLSCAASGFTFSHYDMHWVRQAPGKGLEWVGVISYEGSNKFYADSVKGRFTISRDNSKNTLYLQMNSLRAEDTAVYYCARTPGSHFDYWGQGTLVTVSS VL: not shown	
2.4	1.7	7.1	3.5	TPP-31323 (antibody, IgG4, V domains shown, hIgG4 SPLE, lambda; FB - 1, back mutation VL-Y33A) VH: QVQLVESGGGVVQPGRSLRLSCAASGFTFSHYDMHWVRQAPGKGLEWVAVISYEGSNKFYADSVKGRFTISRDNSKNTLYLQMNSLRAEDTAVYYCARTPGSHFDYWGQGTLVTVSS VL: not shown	
0.83	0.59	2.3	1.6	TPP-31319 (antibody, IgG4, V domains shown, hIgG4 SPLE, lambda; FB - 1, back mutation VH-V37L) VH: QVQLVESGGGVVQPGRSLRLSCAASGFTFSHYDMHWLRQAPGKGLEWVAVISYEGSNKFYADSVKGRFTISRDNSKNTLYLQMNSLRAEDTAVYYCARTPGSHFDYWGQGTLVTVSS VL: not shown	
0.79	0.5	2.9	1	TPP-31324 (antibody, IgG4, V domains shown, hIgG4 SPLE, lambda; FB - 1, back mutation VL-R55L) VH: QVQLVESGGGVVQPGRSLRLSCAASGFTFSHYDMHWVRQAPGKGLEWVAVISYEGSNKFYADSVKGRFTISRDNSKNTLYLQMNSLRAEDTAVYYCARTPGSHFDYWGQGTLVTVSS VL: QSVLTQPPSASGTPGQRVTISCSGSSSNIGSNYVNWYQQLPGTAPKLLIYYDDLLPSGVPDRFSGSKSGTSASLAISGLRSEDEADYYCAAWDDSLSGVVFGGGTKLTVL	
1.7	1.2	3.6	3.3	TPP-31326 (antibody, IgG4, V domains shown, hIgG4 SPLE, lambda; FB + 1, plus VH-F59Y) VH: QVQLVESGGGVVQPGRSLRLSCAASGFTFSHYDMHWVRQAPGKGLEWVAVISYEGSNKYYADSVKGRFTISRDNSKNTLYLQMNSLRAEDTAVYYCARTPGSHFDYWGQGTLVTVSS VL: not shown	
				TPP-29391 (antibody, human IgG1, V domains shown) VH: EVQLLESGGGLVQPGGSLRLSCAASGFTFSSYGMHWVRQAPGKGLEWVAVISYDGSYKYYADSVKGRFTISRDNSKNTLYLQMNSLRAEDTAVYYCAAGVPDYWGQGTLVTVSS VL: QSVLTQPPSASGTPGQRVTISCSGSSSNIGSDYDVHWYQQLPGTAPKLLIYSNNERPSGVPDRFSGSKSGTSASLAISGLRSEDEADYYCAAWDSSLYGPVFGGGTKLTVL	RGA Efficacy (%) (murine IL-11 [7]): 96.9%; RGA Efficacy (%) (human IL-11 [8]): 84%; RGA IC50 (human IL-11 [8]): 0.54 nM; Kd (rat IL-11): 0.071 nM; Kd (murine IL-11 [9]): 0.17 nM; Kd (cynomolgus IL-11): 0.69 nM; Kd (human IL-11 [10]): 0.36 nM
				TPP-29382 (antibody, human IgG1, V domains shown) VH: EVQLLESGGGLVQPGGSLRLSCAASGFTFSSYGMHWVRQAPGKGLEWVAVISYDGSYKYYADSVKGRFTISRDNSKNTLYLQMNSLRAEDTAVYYCAAGVPDYWGQGTLVTVSS VL: QSVLTQPPSASGTPGQRVTISCSGSSSNIGSDLDVHWYQQLPGTAPKLLIYSNNERPSGVPDRFSGSKSGTSASLAISGLRSEDEADYYCAAWDFSLYGPVFGGGTKLTVL	RGA Efficacy (%) (murine IL-11 [7]): 87.5%; RGA IC50 (murine IL-11 [7]): 0.26 nM; RGA Efficacy (%) (human IL-11 [8]): 81.4%; RGA IC50 (human IL-11 [8]): 0.64 nM; Kd (rat IL-11): 0.2 nM; Kd (murine IL-11 [9]): 0.56 nM; Kd (cynomolgus IL-11): 0.46 nM; Kd (human IL-11 [10]): 0.44 nM
				TPP-29381 (antibody, human IgG1, V domains shown) VH: EVQLLESGGGLVQPGGSLRLSCAASGFTFSSYGMHWVRQAPGKGLEWVAVISYDGSYKYYADSVKGRFTISRDNSKNTLYLQMNSLRAEDTAVYYCAAGVPDYWGQGTLVTVSS VL: QSVLTQPPSASGTPGQRVTISCSGSSSNIGSDYDVHWYQQLPGTAPKLLIYSNNERPSGVPDRFSGSKSGTSASLAISGLRSEDEADYYCSAWDSSLSGPVFGGGTKLTVL	RGA Efficacy (%) (murine IL-11 [7]): 94.8%; RGA IC50 (murine IL-11 [7]): 0.45 nM; RGA Efficacy (%) (human IL-11 [8]): 75.3%; RGA IC50 (human IL-11 [8]): 0.48 nM; Kd (rat IL-11): 0.3 nM; Kd (murine IL-11 [9]): 0.57 nM; Kd (cynomolgus IL-11): 0.43 nM; Kd (human IL-11 [10]): 0.62 nM
